Measured values published in the domain aggregation screens of Martell et al. (2025).

Assay: soluble fraction after stress (log2 fold change); higher = more stays soluble; pooled small domains, quantitative proteomics
Settings: stress: 50 degC
Outline: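 Each library was heated to 50°C as a stress step. The libraries, made up of small protein domains, were pooled and analysed at high throughput by quantitative proteomics. The reported value is the base-two logarithm of the fold change in each protein's soluble amount after stress, taken as a measure of aggregation propensity. The higher the value, the more protein stays in solution.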

HMEGSVTVMVNGESVTMTGKQNYIFVDVFDWYSFDLSAGKGRAIATLVNGKEAEFSQPLANGDNIELYWKE
soluble fraction (log2): -0.118

HMQSSDQTDNIYENAVSIVLETGKASASHLQRVLGIDYNLAAHLIDKMEDGGLLSPPNYLGHRDVYGYT
soluble fraction (log2): 0.0916

HMRVQELARDLGVEADTLIALLRQMGIPVTGARSAINDAQQAKVLAKIERERRAGHSDPAKAIQAVLEEAS
soluble fraction (log2): 0.121

HMGGVSTDKPLNWDADGTSKLTQEQIDYLRSTYDLSDMSKQDYYDLMADLTNMNAISIKDVISQYVK
soluble fraction (log2): -0.0536

HMTSIISLAKARSIALQKVPGATSKNIHLSLDDEDDKQVYEGEIKYKQMEYVFEIDAKTGTFLKWTSERD
soluble fraction (log2): -1.66

HMPQLEDLEPLDSSGMVRRDGPHLVLAVGRHRGRHLEEVRDSDPSYLHWLLSPKGIEDIQAKEDIKTYLNL
soluble fraction (log2): 0.0519

HMKTVPNVEGEKDGTAQSAIESAGLKVGKVTYQYDDNTSKGLVISQSVKGGEKVKPNTAIDLVVSNGPK
soluble fraction (log2): 0.0173

HMDEAAGVLTQLRAFIAASNLSPGLRLPPERELAEQLGVTRAELRKALAVLEAEGLLWRQVGKGTFYGARP
soluble fraction (log2): -0.481

HMDPERVVGQTGIVHLRIPARQHNTGKVMIEVQGSLREFDAVSEAEEIPTGTPILIVGRTEEGVFIAQPF
soluble fraction (log2): -0.0467

HMTNEQLSKAKSWVQIAVYAAEKLYGAGNGDQKLVYAEEILRKHGIRLDTATLKAMIDAQIKEMEN
soluble fraction (log2): -0.149

HMSKSVEQRRQQIVAWVKEHGQSQVEDLAVRFATSEVTIRKDLAALSQQGLLIRQFGGAVPVPA
soluble fraction (log2): -0.661

HMEGIAYDINTAPEHIDLKAEDMMATFNIGKTALWRWVKQKILPPPYEYRSQAAHWTIGQIRDWKTA
soluble fraction (log2): -0.0672

HMENFSTLFSRLKEERGLSNKQISSFTGAPIKEVKKWESGMGIPTEKRIVAALEGILGSEISKAI
soluble fraction (log2): -0.0124

HMKYKWLAGQLRRELLENGGKKGYKLPTELELARRYQLSRQTVRRALQLLEEEGLILRRQGSGAYATGKPP
soluble fraction (log2): -0.316

HMYHIYPVADNDTPKLSADRLEYSLSNALLTNKLLNIDEIKKIYNDVILDKDEDGTLELSFKS
soluble fraction (log2): 0.0308

HMAIVNVEVPSLVGKTEQEARNLLTEAGLKVNVVNDEDESKNDGVVLRQSKDAGTEVQEGTTITITVNKVS
soluble fraction (log2): -0.218

HMSDGIPDLRNLNFLSPQEGDYLNESDRVFGVTINGDGQAYPLRIVNAHEMVNDTLGGEPISLM
soluble fraction (log2): 0.16

HMNASITVPDVRNLTVKQASEQLLASGFTPIPYAATKDGVGNDIVYAQDPPPSVLARSGDQITITYNPA
soluble fraction (log2): 0.0329

HMNISRESLIGQILATLNKNPEEGFNYKQIAKRLNITDSPGRQMISDLLRELSKHGSLQEISHGKYKIKV
soluble fraction (log2): -0.226

HMEEMTIRQKRTMIFFIEATKHILQEDGYDHLTIREIAQRAGYNAATLYHYFRDLDELIIYGSVG
soluble fraction (log2): -0.238

HMRSEILNLLREKSPQPVSGQDLANHFGITRTAVWKHIQSLKKMGYGIEAYTKKGYVLVSVPN
soluble fraction (log2): -0.0638

HMSILYNAVKGTLVSSGALTADSWYKISSFGTASALPALKVGSIFKTPEGAGDAITLASGDSVYPLTLT
soluble fraction (log2): -1.26

HMNSVAASLREISIKVSGTEDADKVSRLQELSQMPKLDASGIAEANTLLEQLRAKYGDLGLSVDTARGRIV
soluble fraction (log2): 0.284

HMKFPPASDIRRMRKAIDVTQTELAKQSGVSQSTIAKIERGRISASYDTVVKLFETLDEMAK
soluble fraction (log2): -0.141

HMGNQALSSVLSDIAGIGPVKTKELLRVYPDLDSLRQAPVEEVAKVKGIGRQLAQKIHDHFSSR
soluble fraction (log2): 0.189

HMVLQHHTATKALSYHTSASASAAVKGSFARGDSVQVVQGGSQTADGAKWHKVKVGSSYYYAAAEHLTP
soluble fraction (log2): ≥ 0.62

HMEQVVFNGTGRRKSSIARVRIMSGKGNITVNGKALDEYFGEETLKVIVRQPLTVTDTLDKYDVIATVK
soluble fraction (log2): 0.203

HMGKEDLTAAIKKMTLNDKLDIHKIVANFQTNDSEEVITAVKWLMENNYLLKIKNNYTWNTKEK
soluble fraction (log2): -0.263

HMEPMNMYSSIKKVIGVVSGKGGVGKSLVTASLARMMRAKGYHVGIMDADITGPSIPKMYGLHEMA
soluble fraction (log2): 0.42

HMAIELIDLIKNPETAPFSKLKYLKWMPEAEVTGFFNNLFQLNVTARETGDWSTVDKFLEDEGDRIAAQVA
soluble fraction (log2): -0.138

HMDAVTYAKGSSGETVREIQQLLLDWGYYSGEVDGIFGSRTEDAVEYFQRKNGLTVDGKVGPATLEALGIS
soluble fraction (log2): -0.0183

HMSATIMVLRASEDIPVGTEIKDNHLTTVEVGSYGLPEGAINDKDTVLGKVAQTNIIKGDYFFPQKLGG
soluble fraction (log2): 0.152

HMIPEKEISYMMPDGFMPKELKIIHITESGRKQIYSAAHKPLDLVNVKAPFVPNTKVQIYINDVPIEELKI
soluble fraction (log2): -0.418

HMKNTYTVVSGDTLWGIASRKLGGGSNWTKIYDANAATIESVANRRRGGRGSDHGHWIYPGTVLTI
soluble fraction (log2): -0.0158

HMERFRQVNAGMTRDDIYQLLGKPTEKTPFPLKNEEVWSWRHQADGQTVALFNIHLDPDGRVTTTSQSMDL
soluble fraction (log2): 0.021

HMTELIEDYVELIGDLIRHRGEARAADIANRMAVSQATVSKMIRRLNELGLVTSKPYRSLFLTDEGQKMAE
soluble fraction (log2): -0.474

HMALPDWLDPEAWAAWKRHRKAIRKPLTEDAVALSIRELAKLRDEGYGPTSVIENAILKGWQGLYPPK
soluble fraction (log2): -0.133

HMDSLARKTVNGAEFYIYPVESAEGFYSLRRKFGVSQEEVIKYNPSAQNGLKSGQVLLIPVT
soluble fraction (log2): -0.176

HMLFGKKYLGKVPNDASGRISLWNDIVKHHQELQNIRAIENFTSDNVTVAQGDTKKAVVVTDYVT
soluble fraction (log2): -0.0557

HMFDNPLSERDKEILNHISMGKSNKEIANQVGLAEQTIKNTISVILDKTFTSNRAQAASMATKNKW
soluble fraction (log2): 0.547

HMESPELIHILKEAEWQIWQQIQGLPEKQRIAMTLFAMDDLSYQEIADVMKVSVSAIESLLFRARTQLKKY
soluble fraction (log2): -0.601

HMANILKHKNKDGVITSYTIRVYHGYDEAGKRLRPYTMNYKPAPNMTARQIEKELNRQAVQFEEQIKNGYA
soluble fraction (log2): -0.699

HMQRSVKNNDTVQVHYTGKLTNGQIFDSSIDKQPLEFQLGQGQIIPGFEKGLIDMTVSEKKTITIPEAEAY
soluble fraction (log2): 0.1

HMNPSIALHDWLQSSEFKGSINLFAAALGMNPRTVEAWVYGRSTPSRRFWAKLYQITNLSRFRL
soluble fraction (log2): -0.836

HMAPVLTRREHEVLHLLTDGLDNRTIARNLFISEATVKFHLHNIMGKFGVHRRAALVSTALRG
soluble fraction (log2): -2.21

HMDIYLDEVNRKILHLLSQGIKTRSLREYINLSMSAIEKRKKHMKELFLVEDGKDETLLNEARNKGF
soluble fraction (log2): -1.43

HMANPFQELTERELDVLRQVAAGKNNREIAEALFIGEKTVKTHISNILSKLHLADRTQAAVYAWQQGMM
soluble fraction (log2): -0.0277

HMDFSSRLKDERKRLKLSQAQLGEAGGVSKDAQLNYENGSRSPSASYLELIAREGVDVQFLLTGKRS
soluble fraction (log2): 0.0732

HMHVLNEEYYNRIKAIQFTMNHDDGNSLNDIEKSDIILLGVSRTSKTPTSIYLANRGLRTSNIPLINEK
soluble fraction (log2): -0.326

HMTRILTEDDIVNFLIRQPDTAYIIAKSFNENERKVKELLDLLIKKNKVREEIVNGVVSYAVN
soluble fraction (log2): -0.199

HMDQNVSVPKLAGLQVEEANAILKSKGLHIEIIDSIYQKDAVPGAIIEQVPEENSKVKKGRAIYVSVYAK
soluble fraction (log2): -0.227

HMSSQLETTFATLIGKRVSIRLHDPEGGFRDILGHLESPYSLRNRHGNLIEFAHDQIFLWREVI
soluble fraction (log2): -0.951

HMFLSQQDINRANAASVTDMGDIIRRTFERNAAEINGLELSDAEKKDAVKQMATLATTALKTAAGAVNPY
soluble fraction (log2): -0.132

HMKSVFQPIYEDLLSRIQDGRLLPGMPLPSENALAVQYGTSRPTIRRAIGLLVEKSLVIRQPGIGSIVAS
soluble fraction (log2): -1.17

HMSSSYTEMQLERFKELLNKETLLSSEKNELKNLISDFDKISEIVSPLVVGAYLQLKNEHIETINSLG
soluble fraction (log2): -0.192
